Reference: patent US20240352102A1 (UNITED STATES GOVERNMENT AS REPRESENTED BY THE DEPARTMENT …, published 2024)

What was measured:
[1] = target: T1, Peptide_094; experiment: peptide microarray
T1 peptide: DTSPRHLSNVSSTGS

[2] = target: T2, Peptide_088; experiment: peptide microarray
T2 peptide: FRENAKAKTDHGAEI

[3] = target: T3, Peptide_076; experiment: peptide microarray
T3 peptide: HKPGGGQVEVKSEKL

[4] = target: T4, Peptide_079; experiment: peptide microarray
T4 peptide: EKLDFKDRVQSKIGS

[5] = target: T5, Peptide_100; experiment: peptide microarray
T5 peptide: ATLADEVSASLAKQG

[6] = target: T6, Peptide_077; experiment: peptide microarray
T6 peptide: GGQVEVKSEKLDFKD

[7] = target: T7, Peptide_080; experiment: peptide microarray
T7 peptide: FKDRVQSKIGSLDNI

[8] = target: T8, Peptide_091; experiment: peptide microarray
T8 peptide: AEIVYKSPVVSGDTS

[9] = target: T9, Alzheimer's disease tau (ADtau) fibrillar material (human, UniProt P10636-8 2-441, limits assumed, pathological tau with phosphorylation (pS422 detected); sites otherwise not stated); experiment: native dot blot densitometry, 20 ng per dot, reference recombinant tau
T9 construct: Aggregated, brain-derived material; also called detergent insoluble pathological tau purified from Alzheimer's disease brain tissue; Alzheimer's disease derived tau
Experimental: Shown is a native protein dot blot loaded with equivalent mass of E. coli derived recombinant tau (top row, 20 ng) or Alzheimer's disease derived tau (ADtau) (bottom row, 20 ng). […] C57BL/6 (B6) mouse immunostaining included as controls. Insets depict TRC35 immunoreactivity at higher magnification in the CA1. Scale bar=500 um at low power magnification and 50 μm in the insets.
Characterization of TRC35 monoclonal antibodies. TRC35 monoclonal antibodies were used to dot blot equivalent amounts (20 ng) E. coli-expressed native recombinant tau protein and Alzheimer's disease tau (ADtau) fibrillar material. […] Protein preparations were not denatured prior to blotting to preserve native conformations expected of a conformation dependent monoclonal antibody. Dot blots were performed using the Bio-Dot Microfiltration Apparatus as recommended by the manufacturer (Bio-Rad, catalog #170-6545). Membranes were blocked in blocking solution [20 mM Tris, 500 mM NaCl, 1% bovine serum albumin (w/v) | and probed with TRC35 at 1:50,000 as primary antibody in TTBS buffer [20 mM Tris, 500 mM NaCl, 1% bovine serum albumin (w/v), 0.5% (w/v) Tween20]. Blots were washed 3 times in TTBS to remove excess primary antibody. […] Immunoreactivity was measured using Clarity Western ECL reagents (Bio-Rad) Images were scanned and quantitated using LI-COR Image Studio software.

[10] = target: T10, Peptide_020; experiment: peptide microarray
T10 peptide: AGIGDTPSLEDEAAG

[11] = target: T11, Peptide_001; experiment: peptide microarray
T11 peptide: MAEPRQEFEVMEDHA

[12] = target: T12, Peptide_021; experiment: peptide microarray
T12 peptide: DTPSLEDEAAGHVTQ

[13] = target: T13, Peptide_004; experiment: peptide microarray
T13 peptide: DHAGTYGLGDRKDQG

[14] = target: T14, Peptide_031; experiment: peptide microarray
T14 peptide: KIATPRGAAPPGQKG

[15] = target: T15, Peptide_032; experiment: peptide microarray
T15 peptide: PRGAAPPGQKGQANA

[16] = target: T16, Peptide_006; experiment: peptide microarray
T16 peptide: GDRKDQGGYTMHQDQ

[17] = target: T17, Peptide_028; experiment: peptide microarray
T17 peptide: DDKKAKGADGKTKIA

[18] = target: T18, Peptide_025; experiment: peptide microarray
T18 peptide: RMVSKSKDGTGSDDK

[19] = target: T19, Peptide_010; experiment: peptide microarray
T19 peptide: GDTDAGLKESPLQTP

[20] = target: T20, Peptide_002; experiment: peptide microarray
T20 peptide: RQEFEVMEDHAGTYG

[21] = target: T21, Peptide_023; experiment: peptide microarray
T21 peptide: AAGHVTQARMVSKSK

[22] = target: T22, Peptide_030; experiment: peptide microarray
T22 peptide: DGKTKIATPRGAAPP

[23] = target: T23, Peptide_014; experiment: peptide microarray
T23 peptide: EDGSEEPGSETSDAK

[24] = target: T24, Peptide_008; experiment: peptide microarray
T24 peptide: YTMHQDQEGDTDAGL

[25] = target: T25, Peptide_024; experiment: peptide microarray
T25 peptide: VTQARMVSKSKDGTG

[26] = target: T26, Peptide_011; experiment: peptide microarray
T26 peptide: AGLKESPLQTPTEDG

[27] = target: T27, Peptide_013; experiment: peptide microarray
T27 peptide: QTPTEDGSEEPGSET

[28] = target: T28, Peptide_036; experiment: peptide microarray
T28 peptide: RIPAKTPPAPKTPPS

[29] = target: T29, Peptide_026; experiment: peptide microarray
T29 peptide: KSKDGTGSDDKKAKG

[30] = target: T30, Peptide_027; experiment: peptide microarray
T30 peptide: GTGSDDKKAKGADGK

[31] = target: T31, Peptide_012; experiment: peptide microarray
T31 peptide: ESPLQTPTEDGSEEP

[32] = target: T32, Peptide_009; experiment: peptide microarray
T32 peptide: QDQEGDTDAGLKESP

[33] = target: T33, Peptide_033; experiment: peptide microarray
T33 peptide: APPGQKGQANATRIP

[34] = target: T34, Peptide_005; experiment: peptide microarray
T34 peptide: TYGLGDRKDQGGYTM

[35] = target: T35, Peptide_003; experiment: peptide microarray
T35 peptide: EVMEDHAGTYGLGDR

[36] = target: T36, Peptide_017; experiment: peptide microarray
T36 peptide: DAKSTPTAEAEEAGI

T9 sequence (P10636 other isoform, or with tags, fused parts or gaps limits assumed): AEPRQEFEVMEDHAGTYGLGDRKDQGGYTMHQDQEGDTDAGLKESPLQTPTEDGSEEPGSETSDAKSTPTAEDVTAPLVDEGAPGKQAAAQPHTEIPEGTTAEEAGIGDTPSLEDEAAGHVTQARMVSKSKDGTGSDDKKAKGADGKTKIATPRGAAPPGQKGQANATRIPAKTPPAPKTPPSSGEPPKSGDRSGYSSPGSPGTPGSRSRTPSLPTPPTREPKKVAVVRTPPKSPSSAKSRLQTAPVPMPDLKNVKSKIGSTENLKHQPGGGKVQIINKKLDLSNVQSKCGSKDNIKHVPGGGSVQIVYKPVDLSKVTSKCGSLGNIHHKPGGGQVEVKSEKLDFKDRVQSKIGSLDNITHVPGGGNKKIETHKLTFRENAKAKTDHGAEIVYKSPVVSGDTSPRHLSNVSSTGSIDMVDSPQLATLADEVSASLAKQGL

B1: mAb TRC35 (antibody, V domains shown)
VH: QVQLQQPGTELVKPGASVKLSCKASGYTFTSYWLQWVKQRPGQGLEWIGEIDPSDSYTNYNQKFKGKATLTVDTSSSTAYMQLSSLTSEDSAVYYCATLTGSWGQGTTLAVSS
VL: DVLLTQTPLSLPVSLGDQASISCRASQSIVDSNGNTFLEWYLQKSGQSPKVLIYKVSNRFSGVPDRFSGRGSGTDFTLKISRVEAEDLGVYYCFQGSHVPYTFGGGTKLEIK
notes: Mouse hybridoma monoclonal antibody raised in tau knockout mice against tau/poly(A) RNA complexes; IgG1 isotype, kappa light chain; also called TRC35 monoclonal antibody; hybridoma clone #35
binding result [1]: no binding (tested: 1 ug/ml) | binding result [2]: no binding (tested: 1 ug/ml) | binding result [3]: no binding (tested: 1 ug/ml) | binding result [4]: no binding (tested: 1 ug/ml) | binding result [5]: no binding (tested: 1 ug/ml) | binding result [6]: no binding (tested: 1 ug/ml) | binding result [7]: no binding (tested: 1 ug/ml) | binding result [8]: no binding (tested: 1 ug/ml) | fold selectivity for ADtau over native tau [9]: 8 fold | binding result [10]: no binding (tested: 1 ug/ml) | binding result [11]: no binding (tested: 1 ug/ml) | binding result [12]: no binding (tested: 1 ug/ml) | binding result [13]: no binding (tested: 1 ug/ml) | binding result [14]: no binding (tested: 1 ug/ml) | binding result [15]: no binding (tested: 1 ug/ml) | binding result [16]: no binding (tested: 1 ug/ml) | binding result [17]: no binding (tested: 1 ug/ml) | binding result [18]: no binding (tested: 1 ug/ml) | binding result [19]: no binding (tested: 1 ug/ml) | binding result [20]: no binding (tested: 1 ug/ml) | binding result [21]: no binding (tested: 1 ug/ml) | binding result [22]: no binding (tested: 1 ug/ml) | binding result [23]: no binding (tested: 1 ug/ml) | binding result [24]: no binding (tested: 1 ug/ml) | binding result [25]: no binding (tested: 1 ug/ml) | binding result [26]: no binding (tested: 1 ug/ml) | binding result [27]: no binding (tested: 1 ug/ml) | binding result [28]: no binding (tested: 1 ug/ml) | binding result [29]: no binding (tested: 1 ug/ml) | binding result [30]: no binding (tested: 1 ug/ml) | binding result [31]: no binding (tested: 1 ug/ml) | binding result [32]: no binding (tested: 1 ug/ml) | binding result [33]: no binding (tested: 1 ug/ml) | binding result [34]: no binding (tested: 1 ug/ml) | binding result [35]: no binding (tested: 1 ug/ml) | binding result [36]: no binding (tested: 1 ug/ml)
